These results are taken from article PMC5505470.

Where two headings read alike, the source gives them in different places.

In one data set the target is PTBP1-RRM34 (UniProt P26599-1 324-531). Kind of data set: NMR.
The target of a further data set is PTBP1-RRM1;PTBP1-RRM34 (;, UniProt P26599-1;P26599-1 41-163;324-531, |). The data set is described as follows: NMR.
Another data set concerns the target PTBP1 full length (UniProt P26599-1 1-531, C250S;C251S). Kind of data set: UV crosslinking CLIR-MS/MS.
In data set [1] the target is T1, PTBP1-RRM2 (UniProt P26599-1 178-317, C250S;C251S). The data set is described as follows: NMR solution structure model.
Data set [2] addresses T2, PTBP1-RRM1 (UniProt P26599-1 41-163). Kind of data set: NMR.
The target in data set [3] is T1, PTBP1-RRM2. Kind of data set: NMR.
The target in data set [4] is T2, PTBP1-RRM1. The data set is described as follows: NMR. This is another data set of the same source.

B1: EMCVDElink (structured_RNA)
RNA: GGAUACUGGCCGAAGCCGCUUGGAAUAAGGCCGGUGUGCGUUUGUCUAUAUGUUAUUUUCCAC
Take B1: the binding result in the data set with PTBP1-RRM34 and in the data set with PTBP1-RRM1;PTBP1-RRM34 was “binds” in each case.

B2: EMCVDElinkF (structured_RNA)
RNA: GGAUACUGGCCGAAGCCGCUUGGAAUAAGGCCGGUGUGCGUUUGUCUAUAUGUUAUUUUCCACCAUAUUGCCGUCUUUUGGCAAUGUG
B2: the binding result with PTBP1 full length is reported as “binds”.
Turning to GGAUAUUGCCGUCUUUUGGCAAUGUCC (structured_RNA) [EMCVF], the binding result with PTBP1-RRM2 [1] and in the data set with PTBP1-RRM1 [2] was “binds” each time.
Take GGAGCGUUUGUCUAUAUGUUCC (structured_RNA) [EMCVE]: the binding result in the data set with PTBP1-RRM2 [3] and with PTBP1-RRM1 [4] was “binds” in each case.
